Experiment: yeast display, Sf9 membrane polyspecificity reagent, FACS + sequencing; frameworks hold sequencing errors
In short: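 After 36–48 hours of galactose induction, yeast (Saccharomyces cerevisiae BJ5465) displaying a synthetic nanobody library were stained at 4 °C for 1 hour with 10% biotinylated, detergent-solubilized Sf9 membrane reagent. Streptavidin microbeads enriched the stained cells before FACS sorting into low and high (top ~1%) gates on anti-HA and streptavidin fluorescence. Each clone's polyreactivity label reflects its gate of origin.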

Sequence | polyreactivity (PSR sort gate)
QVQLVESGGGLVQAGGSLRLSCAASGFTFQFNAMGWYRQAPGKERELVAAITWSGDSTYYADSVKGRFTISRDNAKNTVYLQMISLKPEDTAVYYCNADYGWVDTYTNYDYWGQGTQVTVSS | low polyreactivity
QVQLVESGGGLVQAGGSLRLSCAASGLTFNVYAMGWSRQAPGTERELVAALTSGGRTYYADSVKGRFTISRDNEKNTVYLQMNSLKPEDTAVYYCSKSRWYGYSLSGAKRQRSFDYWGQGTQVTVSS | high polyreactivity
QVQLVESGGGLVQAGGSLRLSCAASGSTFSFYAMGWYRQAPGKERELVAAISRSGGSTFYADSVKGRFTISRDNAKNTFYLQMNSLKAEDTAVYYCAAEYAYVPGWYEYWGQGTQVTVSS | high polyreactivity
QVQLVESGGGLVQAGGSLRLSCAASGSIFSLYAMGWYRQAPGKASELVASITSSGGRTYYADSVKGRFTITRDTAKNTVYLQMNSLKPEDTAVYYCNNQPSWVGQRVHRFDYWGQGTQVTVSS | low polyreactivity
QVQLVESGGGLVQAGGSLRLSCAASGYIFYFYAMGWYRQAPGKERELVAAITSVGSTKYADSVKGRFTISRDNAKNTVYLQMNSLKPEDTAVYYCAARRWRSYYYWGQGTQVTVSS | high polyreactivity
QVQLVESGGGLVQAGGSLRLSCAASGFIFTVNAMGWYRQAPGKERELVAAITQSGGNTSYADSVKGRFTISRDNAKNTVYLQMNSLKPEDTAVYYCNAEYTWPYHGVRNGWFNFKYEYWGQGTQVTVSS | low polyreactivity
QVQLVESGGGLVQAGGSLRLSCAASGNILGYNAMGWYRQAPGKERELVAAITQSGGSTYYADSVKGRFTISRDNAKNTVDLQMNSLIPEDTAVYYCAAVGYYYSALDMDYWGQGTQVTVSS | low polyreactivity
QVQLVESGGGLVQAGGSLRLSCAASGSIFGRNAMGWYRQAPGKERELVAAISFIGGSTYYADSVKGRFTISRDNAKNTVYLQMNSLKPEDTAVYYCATSVFYYGSLYGYWGQGTQVTVSS | high polyreactivity
QEQLVESGGGIVKAGGSLRLSCAASGSIFSYYAMGRYRKSPGKEMELVAGITGGGSTDYADSLKGRFTISRDNAKNTVYLQMNSLIPEDPAVYYCAKRYVPWRPYDYWGQGTQVTVSS | low polyreactivity
QVQLVESGGGLVQAGASLRLSSAASGSTFKYYTMGWYRQAPGKERELVAAISFSGARTYYADSVKGRFTISRDNAKNTVYLQMNCLIPEDTAVYYCAKASSYSRRYEYWGQGTQVTVSS | high polyreactivity
QVQLVESGVGLDKAGGSLRLISAASGRILWYNAMGLYRQAPGKEREFVARISISTASTYYADSVKGRFTISRDNAKNTVFLQMNSLKPEDTAVYYCAGKPWRTVPYYYWGQGTQVSVSS | high polyreactivity
QVQLEESGGGLVQAGGSLRLSCAASGRTFGLNAMGWYRQAPGKERELVAAITYSGGSTYYADSVKGRCTISRDNAKNTVYLHMNSLKPEDTAVYYCAKEVQTYWYHYYYWGHGTQVTVSS | high polyreactivity
QVQLVESGGGLVQAGGSLRLSCAASGRTFSIYAMGWYRQAPGKERELVASITGRGGSTYYADSVKGRFTISRDNAKNTVYLQMNSLKPEDTAVYYCAADSYKPDGYRLRNDYWGQGTQVTVSS | high polyreactivity
QVQLVESGGGLVQAGGSLRLSCAATGSIFVLYAMGWYRQAPGKERALVAAISKSTGSTYYADSVKGRFTISRDNAKNTVYLQMNSLKPEDTAVYYCAARGRQYRYYDLDYWGQGTQVTVSS | low polyreactivity
QVQLVESGGGLVQAGGSLRLSCAPSGGTFYSYAMGWYRQAPGKESELVAAISRRGASTYYADSVKGRFTISRDNAKNNVYLQMNSLKPEDTAGYYCAAKGRSYGVTRMYYWGQGTQVTVSS | high polyreactivity
QVQLVESGGGLVQAGGSLRLSCAASGRIFHYYAMGWYRQAPGKERELVADSSWSGGRTYYADSVKGRFTISRDNAKNTVYLQMNSLKPEDTAVYYCAAGHSYRPYYYYGEYDYWGQGTQVTVSS | high polyreactivity
QVQQQESGGGLEQAGGSLRLSCAASGTIFQLTVMGRYRQAPGKERELVASIDYGGNTNYADSVKGRFTISRDNAKKTVYLQMNSLKPEDTAVYYCAASSDSWTTHPYWGQGTQVTVSS | low polyreactivity
QVQLVESGGGLVQAGGSLRLSCAASGSTFYRYTMGWYRQAPGKERELVAAISRGGDSTYYADSVKGRFTISRDNAKNTVYLQMNSLKPEDTAVYYCAANVGARKFGYEYNYWGQGTQVTVSS | high polyreactivity
QVQLVESGGGLVQAGGSLRLSCAASGSIFPWNTMGWYRQAPGKERELVARISTSGASTYYADSVKGRFTISRDNAKNTVYLQMNSLKPEDTAVYYCAKVRHYGGRSWWYYYWGQGTQVTVSS | high polyreactivity
QVQLVESAAGLVQAGGSLRLSCAASGRNFYYYAMGWYRQAPGKEREVVAAINWSGGGTYYADSVKGRFTISRDNAKNTVYLQMNSLKPEDTAVYYCAAGFRYRYYWGQGTQVTVSS | high polyreactivity
QVQLVESGGGLVQAGGSLRLSCAASGFTFSLYAMGWYRQAPGKERELVAAISSRGGTTYYADSVKGRFTISRDNAKNTVYLQMNSLKPEDTAVYYCAARYVYTRSAFDYWGQGTQVTVSS | high polyreactivity
QVQLVESGGGLVQAGGSLRLSCAASGSIFPVNAMGWYRQAPGKEREWVAAISVSGGRTYYADSVKGRFTISRDNAKNTVYLQMNSLKPEDTAVYYCNKLLARGYASGYDYWGQGTQVTVSS | high polyreactivity

Sequence | polyreactivity (PSR sort gate)
QVQLVESGGGLVQAGGSLRLSCAASGGIFNTYAMGWYRQAPGKEREFVAAISRRGGGTYYADSVKGRFTISRDNAKNTVYLQMNSLKPEDTAVYYCNADDKRGSRGYGSDHWGQGTQVTVSS | high polyreactivity
QVQLVESGGGLVQAGGSLRLSCAASGRTFGGYAMGWYRQAPGKERELVAAITYSGGSTYYADSVKGRFTISRDNAKNTVYLQMNSLKPEDTAVYYCAAEGSSSYTYDYWGQGTQVTVSS | low polyreactivity
QVQLVESGGGLVQAGGSLRLSCAASGRTFGYNALGWYRQAPGKERELVAAINWSGASTYYADSVKGRFTISRDKAKNTVYLQMNSLKPEDTAVYYCAKVTRGSQYDYWGQGTQVTVSS | low polyreactivity
QVQLVETGGGLVQAGGSLRLSCAASGRTFKFYAMGWYRQAPGKEREFVAVINRSGVNTHYADSVKVRFTISRDNAKNTVYLQMNSLKPEDTAVYYCAKYVYPLDHVAGYDYWGQGTQVTVSS | low polyreactivity
QVQLVESGGGLVQAGGSLRLSCAASGSIFDSYAMGWYRQAPGKERELVASISYRGGSTYYADSVKGRFTISRDNAKNTVYLQMNSLKPEDTAVYYCAATPGYHYRSWRYYYWGQGTQVTVSS | high polyreactivity
QVQLVESGGGLVQAGGSLSLSCAASGITFSGNAMGWYRQAPGKERELVAAITWRGDNTYYADSVKGRFTISRDNAKNTVYLQMNSLKPEDTAVYYCAAKSPLFGLTSYPGPDDSWGQGTQVTVSS | low polyreactivity
QVQLVESGGGLVQAGGSLRLSCAASGYIFAGNAMGWYRQAPGKERELVAVITRGGRTYYADSVKGRFTISRDNAKNTVYLQMNSLKPEDTAVYYCAARYPYRGWGQGTQVTVSS | high polyreactivity
QVHLVESGGGLVQAGGSLRLSCAASGNTFDINAMGWYRQAPGKERELVAAISFSGGDTYYADSVKGRFTISRDNAKNTVYLQMNILKPEHTAVYYCAAEVPDTDAYGYWGQGTQVTVSS | low polyreactivity
QVQLVESGGGLVQAGGSLRLSCAASGITFFRNAMGWYRQAPGKERELVAAISRGGGSTYYADSVKGRFTISRDNAKNTVYLQMNSLKPEDTAVYYCAEYKYGTGVKMDYWGQGTQVTVSS | high polyreactivity
QVQLVESGGGLVQAGGSLRLSCAASGSIFIFNAMGWYRQAPGKEREFVARIRRDSSTYYADSVKGRFTISRDNAKNTVYLLMNSLKPEDTAVYYCAAKRVYRRVELNSWGQGTQVTVSS | low polyreactivity
QVQLVESGGGLVQAGGSLRLSCAASGRIFFLYAMGWYRQAPGKERELVASINRGGNTNYADSVKGRFTISRDNAKNTVYLHMNSLKPEDTAVYYCAARLVIFYPYSRYYYWGQGTQVTVSS | high polyreactivity
QVQIVESGGGLVQAGGSLRLSCAASGFTFRYYAMGWYRQAPGQERELVAAISKSGGSTYYADSVKGRFTISRDNAKNTVDLQMNSLKPEDTAVYYCAADYAHIGYDYDYWGQGTQVTVSS | high polyreactivity
QVQLVESGGGLVQAGGSLRLSCAASGITFTEYAMGWYRQAPGKERELVATISYGGGITYYADSVKGRFTISRDNAKNTVYLQMNSLKPEDTAVYYCAADGLSQVQRGMDYWGQGTQVNVSS | low polyreactivity
QVQLVESGGGLVQAGGSLRLSCAASGRTSIYNTMGWYRQAPGKERELVAAINPSGSTNYADSVKGRFTISRDNAKNTVYLQMNSLKPEDTAVYYCAAVVKWWGQSRYDYWGQGTQVTVSS | high polyreactivity
QVQLVESGGGLVQAGGSLRLSCAASGFTTAYAMGWYRQAPGKERELVAAISSGGSTYYADSVKGRFTISRDNAKNTVYLQMNSLKPEDTAVYYCATGPYYGYDEFDYWGQGTQVTVSS | low polyreactivity
QVQLVESGGGLVQAGGSLRLSCAASGSIFGQNAMGWYRQAPGKERELVAAITSGAGITYYADSVKGRFTISRDNAKNTVYLQMNSLKPEDPAVYYCNAVPSWSPSPLFDYWGQGTQVTVSS | low polyreactivity
QVQLVESVGGLVQAGGSLLLSCAAYGDISRYNTMGWYRQAPGKERELVPAITWSGGSTYADSVKGRFTISRDNAKNTVYLQMNSLKPEDTAVYYCAAGAYIWDNYSYRWYDYLGQGTQVTVSS | high polyreactivity
QVQLVESGGGLVQAGGSLRLSCAASGLICTYYAMGWYRQAPGKEWEFVAGISKSTSSTYYADSVKGRFTISRDNAKNTVYLLMISLKPEDTAVYYCAAQGGRNRGYRYYWGQGTQVTLSS | high polyreactivity
QVQLVESGGGLDQARGSLRLSCAASGFTFKFYAMGWYRQSPGKEREFVAAISGSGDSTYADSVKGRFTISRDNAKNTVYLQMNSLKPEDTAVYYCNARYAGVPWWGYYSSEVNYWGQGTQVTVSS | low polyreactivity
QVQLVESGGGLVQAGGSLRLSCAASGFTFPYYTMGWYRQAPGKERELVATISYSGGRTYYADSVKGRFTISRDNAKNTVYLQMNSLKPEDTAVYYCNKVVRLQSRYDYWGQGTQVTVSS | high polyreactivity
QVQLVESGGGLVQAGGSLRLSCAPSGRTYLTYVMGWYRQAPGKERELVAAITRGGRTNYADSVKGRFTISRDNAKNTVYLQMNSLQPEDTAVYYCARDIHSVHNNRDKHDYDDWGQGTLVTVSS | low polyreactivity
